Experiments:
Assay in all cases: AUC
[1] = biological target: I-CreI 28N30N33S38R40K44A68S70R75N (combinatorial mutant NNSRK/ASR) (Chlamydomonas reinhardti)
[2] = biological target: I-CreI 28N30N33S38R40K44A68R70R75N (combinatorial mutant NNSRK/ARR) (Chlamydomonas reinhardti)
[3] = biological target: I-CreI 28K30N33H38Q40S44K68E70G75N (combinatorial mutant KNHQS/KEG) (Chlamydomonas reinhardti)
[4] = biological target: I-CreI 28K30N33H38Q40S44K68A70S75N (combinatorial mutant KNHQS/KAS) (Chlamydomonas reinhardti)

## I-CreI 28N30N33S38R40K44A68S70R75N (combinatorial mutant NNSRK/ASR) (enzyme)
[1]
  stoichiometry N: 2

## I-CreI 28N30N33S38R40K44A68R70R75N (combinatorial mutant NNSRK/ARR) (enzyme)
[2]
  stoichiometry N: 2

## I-CreI 28K30N33H38Q40S44K68E70G75N (combinatorial mutant KNHQS/KEG) (enzyme)
[3]
  stoichiometry N: 2

## I-CreI 28K30N33H38Q40S44K68A70S75N (combinatorial mutant KNHQS/KAS) (enzyme)
[4]
  stoichiometry N: 2

From publication PMC1702487
